Source: paper PMC6603146

Tests used:
[1] = target: human chemokine CCL5 (RANTES), commercial recombinant (human) (UniProt P13501); test: ELISA; 50 pg chemokine mixed in solution with 2-400 ng recombinant M3 in 110 ul, 21 C, 1.5 h with gentle shaking, then applied to DuoSet sandwich ELISA plates; drop of OD492 against chemokine without M3 = % inhibition; IC25/IC50 = M3 concentration that removes 25 or 50% of the chemokine; three independent experiments
[2] = target: human chemokine CXCL8 (IL-8), commercial recombinant (human); test: as above

UniProt P13501, sequence (P13501 24-91): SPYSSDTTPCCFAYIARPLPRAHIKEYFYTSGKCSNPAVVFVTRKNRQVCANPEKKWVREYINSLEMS

Substance	IC25 [1]	IC50 [1]	IC25 [2]
wild-type M3 protein of murine gammaherpesvirus 68 (MHV-68), recombinant, C-terminal His-tag (natural protein)	7.1 nM	16.2 nM	8.7 nM
M3-T272G mutant of MHV-68 M3 protein, recombinant, C-terminal His-tag (natural protein)	30.2 nM	> 90 nM	42.5 nM
M3-E70A mutant of MHV-68 M3 protein, recombinant, C-terminal His-tag (natural protein)	3.5 nM	8.7 nM	11.5 nM
